In paper PMC6726447:

Biological target: HAdV-D26 fiber knob protein (human adenovirus type 26 (HAdV-D26))
Assay: crystal structure; HAdV-D26K crystals (PACT Premier B01 and B04, pH 4.0 and pH 8.0) soaked in 10 mM Neu5Ac; cubic space group, biological trimer assembled from it

HAdV-D26 fiber knob protein (domain or fragment)
stoichiometry N: 3
